Laboratory results as given in US20130116182A1, “Factor VIII B Cell Epitope Variants Having Reduced Immunogenicity” (priority 2009, published 2013).
“Also recorded” adds a separate entry of the source.

Legend:
BO2C11 Fab fragment [1] = experiment: SPR, BO2C11 Fab on chip, 25 C
BO2C11 Fab fragment [2] = experiment: SPR, BO2C11 Fab on chip, 25 C, 1:1 model
BO2C11 Fab fragment [3] = experiment: SPR kinetic runs at 25 C (kd/ka)
BO2C11 Fab fragment [4] = experiment: SPR at 10-40 C, van't Hoff analysis (KD° from ΔGA°)
BO2C11 Fab fragment [5] = experiment: SPR at 10-40 C, van't Hoff analysis
CD4+ T cells [6] = experiment: Staining with peptide-loaded DR1101 tetramers (tetramer guided epitope mapping); format: cell-based, human
CD4+ T cells [7] = experiment: Staining with peptide-loaded DR0101 tetramers (tetramer guided epitope mapping); format: cell-based, human; details: for Positive (individual peptide loaded tetramer staining): DR0101 tetramers, severe HA inhibitor subject 56A, day 18
Text: T-cell clones were obtained from blood samples from both brothers by staining CD4+ cells with fluorescent DR0101 tetramers that were loaded with peptide FVIII2194-2213, followed by single-cell sorting and expansion. Clones were expanded by stimulation with irradiated peripheral blood mononuclear cells (PBMCs) from an HLA-mismatched individual plus phytohemagglutinin (Remel, Lenexa, Kans.) in the presence of human IL-2 (Hemagen Diagnostics, Inc., Columbia, Md.). Clonality was confirmed by tetramer staining, multiplex PCR and sequencing of the VDJ region in the PCR products.
(§1) a. Added 1.5 μl PE-labeled tetramers (final concentration 10 μg/ml. b. Mixed by shaking the rack containing the FACS tubes. c. Incubated the cells with tetramer for 1 hr in the 37 C 5% CO2 incubator.
(§2) a. Incubated tubes in the refrigerator for >5 min. b. Made an antibody cocktail consisting of 3.75 μl anti-CD4-APC, 3.75 μl anti-CD3-PerCP, 3.75 μl anti-CD25-FITC per sample. 3.75 ul×50=187.5 ul. c. Added 3.75 μl control antibodies to 75 μl control cells (1 —unstained; 2—anti-CD4-FITC; 3—anti-CD4-PE; 4—anti-CD3-PerCP; 5—anti-CD4-APC). d. Added 11.25 μl antibody cocktail to each sample. e. Incubated all samples at 4 C (put in the refrigerator) for 20 min in the dark.
(§3) a. Added 2 ml cold FACS wash buffer to each tube. b. Centrifuged at 1200 rpm, 10 min, 4 C, low brake in the Beckman Coulter Allegra 6KR centrifuge. c. Decanted the supernatant. d. Resuspended in 200 μl FACS wash buffer. e. Stored tubes in a covered ice container for FACS analysis.
(§4) a. Added 1.5 μl PE-labeled tetramers (final concentration 10 μg/ml). b. Mixed by shaking the rack containing the FACS tubes. c. Incubated the cells with tetramer for 1 hr in the 37 C 5% CO2 incubator.
(§5) a. Incubated tubes in the refrigerator for >5 min. b. Made an antibody cocktail consisting of 3.75 μl anti-CD4-APC, 3.75 μl anti-CD3-PerCP, 3.75 μl anti-CD25-FITC per sample. 3.75 ul×55=206.25 ul (For the CD25-FITC Ab, I opened a new vial (Lot #E016414)—taking 100 ul from this lot.) c. Added 3.75 μl control antibodies to 75 μl control cells (1 —unstained; 2—anti-CD4-FITC; 3—anti-CD4-PE; 4—anti-CD3-PerCP; 5—anti-CD4-APC). d. Added 11.25 μl antibody cocktail to each sample. e. Incubated all samples at 4 C (put in the refrigerator) for 20 min in the dark.
(§6) a. Added 2 ml cold FACS wash buffer to each tube. b. Centrifuged at 1200 rpm, 10 min, 4 C, low brake in the Beckman Coulter Allegra 6KR centrifuge. c. Decanted the supernatant. d. Resuspended in 250 μl FACS wash buffer. e. Stored tubes in a covered ice container for FACS analysis.

CD4+ T cells [8] = experiment: Staining with peptide-loaded DR1001 tetramers (tetramer guided epitope mapping); format: cell-based, human; details: for Positive (individual peptide loaded tetramer staining): DR1001 tetramers, severe HA inhibitor subject 56A, day 18
Description: as §1, §2, §3, §4, §5, §6

HLA-DRB1*0101 (DR0101) = HLA-DRB1*0101 (DR0101) (Homo sapiens, UniProt P01903+P01911, A100R/D57E/F55L/F60I/F76Y/I96L/L162R/M171V/P40L/Q125E/R42F/V115G/Y59C); experiment: HLA-DR peptide binding competition assay, DR0101; details: labels are Arg or Ala substitutions in synthetic peptide FVIII2194-2205

## FVIII C2 domain protein R2215A (from UniProt P00451 2189-2351)
BO2C11 Fab fragment [1]
  kd relative to WT-C2: > 4 fold
BO2C11 Fab fragment [2]
  Kd: 150 pM
  koff: 0.00061 s⁻¹
  kon: 4.1e+06 M⁻¹ s⁻¹
BO2C11 Fab fragment [3]
  Kd: 150 pM
BO2C11 Fab fragment [4]
  Kd: 100 pM
BO2C11 Fab fragment [5]
  TΔSA°: 11.7 kcal/mol
  Δ(TΔSA°) (against WT-C2): -1.2 kcal/mol
  ΔGA°: -13.6 kcal/mol
  ΔHA°: -1.91 kcal/mol
  ΔΔGA° (against WT-C2): 2.63 kcal/mol
  ΔΔHA° (against WT-C2): 1.43 kcal/mol

## TWVHYIAAEEEDWDYAPLVL [FVIII381-400]
CD4+ T cells [6]; mild HA subject 41A
  tetramer staining of peptide-stimulated CD4+ T cells: high peptide-specific background staining

## CSCC[C@H](NC(=O)[C@H](Cc1ccccc1)NC(=O)[C@H](CCCNC(=N)N)NC(=O)[C@@H](NC(=O)[C@H](CCCCN)NC(=O)[C@H](CCCCN)NC(=O)[C@H](Cc1ccc(O)cc1)NC(=O)[C@H](CCCCN)NC(=O)[C@@H](N)CCCNC(=N)N)C(C)C)C(=O)N[C@@H](C)C(=O)N[C@@H](Cc1ccc(O)cc1)C(=O)N[C@H](C(=O)N[C@@H](CC(=O)O)C(=O)N[C@@H](CCC(=O)O)C(=O)N[C@H](C(=O)N[C@@H](Cc1ccccc1)C(=O)N[C@@H](CCCCN)C(=O)N[C@H](C(=O)N[C@@H](CCCNC(=N)N)C(=O)N[C@@H](CCC(=O)O)C(=O)O)[C@@H](C)O)[C@@H](C)O)[C@@H](C)O [FVIII421-440]
CD4+ T cells [6]; mild HA subject 41A
  tetramer staining of peptide-stimulated CD4+ T cells: weaker positive staining; also recorded: tetramer-positive

## FVIII C2 domain protein T2197A (from UniProt P00451 2189-2351)
BO2C11 Fab fragment [2]
  Kd: 9.8 pM
  koff: 4.3e-05 s⁻¹
  kon: 4.4e+06 M⁻¹ s⁻¹
BO2C11 Fab fragment [3]
  Kd: 9.8 pM
BO2C11 Fab fragment [4]
  Kd: 6.1 pM
BO2C11 Fab fragment [5]
  TΔSA°: 12.4 kcal/mol
  Δ(TΔSA°) (against WT-C2): -0.478 kcal/mol
  ΔGA°: -15.3 kcal/mol
  ΔHA°: -2.87 kcal/mol
  ΔΔGA° (against WT-C2): 0.956 kcal/mol
  ΔΔHA° (against WT-C2): 0.478 kcal/mol

## VEDGPTKSDPRCLTRYYSSF [Mutant A2-19]
CD4+ T cells [7]
  Positive (individual peptide loaded tetramer staining): no
CD4+ T cells [8]
  Positive (individual peptide loaded tetramer staining): no

## FVIII C2 domain protein S2250A (from UniProt P00451 2189-2351)
BO2C11 Fab fragment [2]
  Kd: 22 pM
  koff: 9.4e-05 s⁻¹
  kon: 4.3e+06 M⁻¹ s⁻¹
BO2C11 Fab fragment [3]
  Kd: 22 pM
BO2C11 Fab fragment [4]
  Kd: 30 pM
BO2C11 Fab fragment [5]
  TΔSA°: 13.6 kcal/mol
  Δ(TΔSA°) (against WT-C2): 0.717 kcal/mol
  ΔGA°: -14.3 kcal/mol
  ΔHA°: -0.717 kcal/mol
  ΔΔGA° (against WT-C2): 1.91 kcal/mol
  ΔΔHA° (against WT-C2): 2.63 kcal/mol

## LAPMIIHGIKTQGARQKFSS [Mutant C1-12]
CD4+ T cells [7]
  Positive (individual peptide loaded tetramer staining): no
CD4+ T cells [8]
  Positive (individual peptide loaded tetramer staining): no

## S2204R: synthetic peptide FVIII2194-2205 with S2204R substitution (SYFTNMFATWRP; UniProt P00451 2213-2224, looked up, fragment S2204R) [Mutant S2204R]
HLA-DRB1*0101 (DR0101)
  binding to DR0101: abolished or greatly reduced

## CC[C@H](C)[C@H](NC(=O)CNC(=O)[C@H](Cc1c[nH]cn1)NC(=O)[C@@H]1CCCN1C(=O)[C@H](Cc1ccc(O)cc1)NC(=O)[C@@H](NC(=O)[C@H](CC(N)=O)NC(=O)[C@H](Cc1ccc(O)cc1)NC(=O)[C@@H]1CCCN1C(=O)[C@H](CCCNC(=N)N)NC(=O)[C@H](CO)NC(=O)[C@H](C)N)[C@@H](C)CC)C(=O)N[C@H](C(=O)N[C@@H](CC(=O)O)C(=O)N[C@H](C(=O)N[C@@H](CCCNC(=N)N)C(=O)N1CCC[C@H]1C(=O)N[C@@H](CC(C)C)C(=O)N[C@@H](Cc1ccc(O)cc1)C(=O)N[C@@H](CO)C(=O)O)C(C)C)[C@@H](C)O [FVIII469-488]
CD4+ T cells [6]; inhibitor subject 1D
  tetramer staining of peptide-stimulated CD4+ T cells: Weaker positive staining; also recorded: tetramer-positive

## FVIII C2 domain protein L2251A (from UniProt P00451 2189-2351)
BO2C11 Fab fragment [2]
  Kd: 6.2 pM
  koff: 5e-05 s⁻¹
  kon: 8.1e+06 M⁻¹ s⁻¹
BO2C11 Fab fragment [3]
  Kd: 6.2 pM
BO2C11 Fab fragment [4]
  Kd: 2.7 pM
BO2C11 Fab fragment [5]
  TΔSA°: 8.37 kcal/mol
  Δ(TΔSA°) (against WT-C2): -4.54 kcal/mol
  ΔGA°: -15.8 kcal/mol
  ΔHA°: -7.41 kcal/mol
  ΔΔGA° (against WT-C2): 0.478 kcal/mol
  ΔΔHA° (against WT-C2): -4.06 kcal/mol

## A2201R: synthetic peptide FVIII2194-2205 with A2201R substitution (SYFTNMFRTWSP; UniProt P00451 2213-2224, looked up, fragment A2201R) [Mutant A2201R]
HLA-DRB1*0101 (DR0101)
  binding to DR0101: abolished or greatly reduced

## M2199R: synthetic peptide FVIII2194-2205 with M2199R substitution (SYFTNRFATWSP; UniProt P00451 2213-2224, looked up, variant M2199R) [Mutant M2199R]
HLA-DRB1*0101 (DR0101)
  binding to DR0101: abolished or greatly reduced

## CC[C@H](C)[C@H](NC(=O)CNC(=O)[C@H](CO)NC(=O)[C@H](CCC(=O)O)NC(=O)[C@H](Cc1c[nH]cn1)NC(=O)[C@H](CCC(N)=O)NC(=O)[C@@H](NC(=O)[C@H](C)NC(=O)[C@H](CCC(=O)O)NC(=O)[C@H](CCCNC(=N)N)NC(=O)[C@@H](NC(=O)[C@H](CCCCN)NC(=O)[C@H](Cc1ccccc1)NC(=O)[C@@H](NC(=O)[C@H](CCC(=O)O)NC(=O)[C@H](CC(=O)O)NC(=O)[C@@H](NC(=O)[C@H](Cc1ccc(O)cc1)NC(=O)[C@H](C)NC(=O)[C@@H](N)CCSC)[C@@H](C)O)[C@@H](C)O)[C@@H](C)O)[C@@H](C)CC)C(=O)O [FVIII429-448]
CD4+ T cells [6]; inhibitor subject 1D
  tetramer staining of peptide-stimulated CD4+ T cells: Weaker positive staining; also recorded: tetramer-positive

## IKTQGARQKFSSLYISQFII [Mutant C1-13]
CD4+ T cells [7]
  Positive (individual peptide loaded tetramer staining): no
CD4+ T cells [8]
  Positive (individual peptide loaded tetramer staining): no

## IFKYKWTVTVEDGPTKSDPR [Mutant A2-18]
CD4+ T cells [7]
  Positive (individual peptide loaded tetramer staining): yes
CD4+ T cells [7]; loaded on DR0101, subject 56A
  tetramer staining: Very strong staining
CD4+ T cells [8]
  Positive (individual peptide loaded tetramer staining): yes
CD4+ T cells [8]; loaded on DR1001, subject 56A
  tetramer staining: Very strong staining

## QFIIMYSLDGKKWQTYRGNS [Mutant C1-15]
CD4+ T cells [7]
  Positive (individual peptide loaded tetramer staining): no
CD4+ T cells [8]
  Positive (individual peptide loaded tetramer staining): no

## FPILPGEIFKYKWTVTVEDG [Mutant A2-17]
CD4+ T cells [7]
  Positive (individual peptide loaded tetramer staining): no
CD4+ T cells [8]
  Positive (individual peptide loaded tetramer staining): no

## FVIII C2 domain protein L2252A (from UniProt P00451 2189-2351)
BO2C11 Fab fragment [2]
  Kd: 6.1 pM
  koff: 0.00017 s⁻¹
  kon: 2.8e+07 M⁻¹ s⁻¹
BO2C11 Fab fragment [3]
  Kd: 6.1 pM
BO2C11 Fab fragment [4]
  Kd: 9.1 pM
BO2C11 Fab fragment [5]
  TΔSA°: 3.35 kcal/mol
  Δ(TΔSA°) (against WT-C2): -9.56 kcal/mol
  ΔGA°: -15.1 kcal/mol
  ΔHA°: -11.7 kcal/mol
  ΔΔGA° (against WT-C2): 1.2 kcal/mol
  ΔΔHA° (against WT-C2): -8.37 kcal/mol

## DPRCLTRYYSSFVNMERDLA [Mutant A2-20]
CD4+ T cells [7]
  Positive (individual peptide loaded tetramer staining): no
CD4+ T cells [8]
  Positive (individual peptide loaded tetramer staining): no
